In the first assay the target is T1, USP8 Rhod domain (Homo sapiens, UniProt P40818).
T1 construct: USP8 Rhod (174–317) (UniProt: P40818); GST (cleaved yes); made in house; host or cells: Escherichia coli BL21-Gold (DE3)
T1 sequence (P40818 174-317): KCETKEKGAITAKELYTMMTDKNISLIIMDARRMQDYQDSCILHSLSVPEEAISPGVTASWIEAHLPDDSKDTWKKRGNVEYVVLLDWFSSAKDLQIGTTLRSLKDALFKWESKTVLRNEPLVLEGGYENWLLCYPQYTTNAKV
Briefly: Peptide-phage display-based deep mutational scanning (DMS), USP8 Rhod domain. It counts as binding. Particulars: PSSM, library USP8_DMS, days 2,3; position 7.
“KIAA1614_Q5VZ46_569_584 G7A (MERVLGALSSPLRLLP; UniProt Q5VZ46 569-584, looked up, variant G7A)”: the “enrichment_relative_to_wt at position 7 (wt G)” value is reported as 1.68 and the “proportion of amino acid at position 7 (wt G)” value (“proportion … (wt G)” for short) is reported as 0.0259.

As to “KIAA1614_Q5VZ46_569_584 G7D (MERVLGDLSSPLRLLP; peptide 569-584; UniProt Q5VZ46 569-584, looked up, variant G7D)”, the “enrichment_relative_to_wt at position 7 (wt G)” value was determined as 17 and the “proportion … (wt G)” value is reported as 0.26.

For the substance “KIAA1614_Q5VZ46_569_584 G7E (MERVLGELSSPLRLLP; UniProt Q5VZ46 569-584, looked up, variant G7E)”, the “enrichment_relative_to_wt at position 7 (wt G)” value was found to be 1.36 and the “proportion … (wt G)” value was 0.02.

For the substance “KIAA1614_Q5VZ46_569_584 G7F (MERVLGFLSSPLRLLP; UniProt Q5VZ46 569-584, looked up, variant G7F)”, the “enrichment_relative_to_wt at position 7 (wt G)” value is reported as 3 and the “proportion … (wt G)” value came to 0.0448.

In the case of “KIAA1614_Q5VZ46_569_584 G7H (MERVLGHLSSPLRLLP; UniProt Q5VZ46 569-584, looked up, variant G7H)”, the “enrichment_relative_to_wt at position 7 (wt G)” value is on record as -7.58 and the “proportion … (wt G)” value is 0.00204.

As to “KIAA1614_Q5VZ46_569_584 G7I (MERVLGILSSPLRLLP; peptide 569-584; UniProt Q5VZ46 569-584, looked up, variant G7I)”, the “enrichment_relative_to_wt at position 7 (wt G)” value is on record as -2.84 and the “proportion … (wt G)” value worked out at 0.00545.

For the substance “KIAA1614_Q5VZ46_569_584 G7K (MERVLGKLSSPLRLLP; peptide 569-584; UniProt Q5VZ46 569-584, looked up, variant G7K)”, the “enrichment_relative_to_wt at position 7 (wt G)” value was -96 and the “proportion … (wt G)” value is on record as 0.000161.

In the case of “KIAA1614_Q5VZ46_569_584 G7L (MERVLGLLSSPLRLLP; UniProt Q5VZ46 569-584, looked up, variant G575L)”, the “enrichment_relative_to_wt at position 7 (wt G)” value is reported as -3 and the “proportion … (wt G)” value is 0.00507.

“KIAA1614_Q5VZ46_569_584 G7Q (MERVLGQLSSPLRLLP; UniProt Q5VZ46 569-584, looked up, variant G7Q)”: the “enrichment_relative_to_wt at position 7 (wt G)” value was 1.89 and the “proportion … (wt G)” value was determined as 0.03.

For the substance “KIAA1614_Q5VZ46_569_584 G7R (MERVLGRLSSPLRLLP; UniProt Q5VZ46 569-584, looked up, variant G7R)”, the “enrichment_relative_to_wt at position 7 (wt G)” value is -19 and the “proportion … (wt G)” value turned out to be 0.000822.

With “KIAA1614_Q5VZ46_569_584 G7S (MERVLGSLSSPLRLLP; UniProt Q5VZ46 569-584, looked up, variant G7S)”, the “enrichment_relative_to_wt at position 7 (wt G)” value is -1.8 and the “proportion … (wt G)” value was found to be 0.0086.

Turning to “KIAA1614_Q5VZ46_569_584 G7T (MERVLGTLSSPLRLLP; peptide 569-584; UniProt Q5VZ46 569-584, looked up, variant G7T)”, the “enrichment_relative_to_wt at position 7 (wt G)” value came to 30 and the “proportion … (wt G)” value worked out at 0.46.

“KIAA1614_Q5VZ46_569_584 G7W (MERVLGWLSSPLRLLP; UniProt Q5VZ46 569-584, looked up, variant G7W)”: the “enrichment_relative_to_wt at position 7 (wt G)” value is -172 and the “proportion … (wt G)” value is listed as 8.98e-5.

On to “KIAA1614_Q5VZ46_569_584 G7Y (MERVLGYLSSPLRLLP; peptide 569-584; UniProt Q5VZ46 569-584, looked up, variant G7Y)”, for which the “enrichment_relative_to_wt at position 7 (wt G)” value is -2 and the “proportion … (wt G)” value was found to be 0.00809.

The assay is the same for the next values; noted with them: PSSM, library USP8_DMS, days 2,3; position 10.
In the case of “KIAA1614_Q5VZ46_569_584 S10E (MERVLGGLSEPLRLLP; UniProt Q5VZ46 569-584, looked up, variant S10E)”, the “enrichment_relative_to_wt at position 10 (wt S)” value is on record as -77 and the “proportion of amino acid at position 10 (wt S)” value (shortened to “proportion … (wt S)”) is reported as 0.00734.

Regarding “KIAA1614_Q5VZ46_569_584 S10H (MERVLGGLSHPLRLLP; UniProt Q5VZ46 569-584, looked up, variant S10H)”, the “enrichment_relative_to_wt at position 10 (wt S)” value was -1.37 and the “proportion … (wt S)” value is reported as 0.41.

For the substance “KIAA1614_Q5VZ46_569_584 S10I (MERVLGGLSIPLRLLP; UniProt Q5VZ46 569-584, looked up, variant S10I)”, the “enrichment_relative_to_wt at position 10 (wt S)” value is on record as -231 and the “proportion … (wt S)” value is 0.00245.

In the case of “KIAA1614_Q5VZ46_569_584 S10V (MERVLGGLSVPLRLLP; peptide 569-584; UniProt Q5VZ46 569-584, looked up, variant S10V)”, the “enrichment_relative_to_wt at position 10 (wt S)” value is listed as -328 and the “proportion … (wt S)” value was 0.00172.

The assay is the same for the next values; noted with them: PSSM, library USP8_DMS, days 2,3; position 15.
Consider “KIAA1614_Q5VZ46_569_584 L15A (MERVLGGLSSPLRLAP; UniProt Q5VZ46 569-584, looked up, variant L15A)”, for which the “enrichment_relative_to_wt at position 15 (wt L)” value is -207 and the “proportion of amino acid at position 15 (wt L)” value (shortened to “proportion … (wt L)”) is 0.00469.

On to “KIAA1614_Q5VZ46_569_584 L15I (MERVLGGLSSPLRLIP; UniProt Q5VZ46 569-584, looked up, variant L15I)”, for which the “enrichment_relative_to_wt at position 15 (wt L)” value was -277 and the “proportion … (wt L)” value is reported as 0.00349.

Regarding “KIAA1614_Q5VZ46_569_584 L15N (MERVLGGLSSPLRLNP; peptide 569-584; UniProt Q5VZ46 569-584, looked up, variant L15N)”, the “enrichment_relative_to_wt at position 15 (wt L)” value was -89 and the “proportion … (wt L)” value amounted to 0.0109.

For the substance “KIAA1614_Q5VZ46_569_584 L15V (MERVLGGLSSPLRLVP; UniProt Q5VZ46 569-584, looked up, variant L15V)”, the “enrichment_relative_to_wt at position 15 (wt L)” value is recorded as -151 and the “proportion … (wt L)” value was 0.00642.

Staying with this assay, now noted: ProP-PD pairs, bait USP8_Rhodanese__P40818_174_317; wild-type/mutant pair, wild type KIAA1614 569-584 GMERVLGGLSSPLRLL (wt_00013).
IMERVLGGLSSPLRLL showed a hit_pair_ratio of 24.34.

On to KMERVLGGLSSPLRLL, for which the hit_pair_ratio was found to be 10.10.

The substance LMERVLGGLSSPLRLL gave a hit_pair_ratio of 64.39.

MMERVLGGLSSPLRLL registered a hit_pair_ratio of 6.27.

The substance NMERVLGGLSSPLRLL displayed a hit_pair_ratio of 1.70.

Consider RMERVLGGLSSPLRLL, for which the hit_pair_ratio is reported as 3.82.

The substance VMERVLGGLSSPLRLL gave a hit_pair_ratio of 53.66.

In the case of WMERVLGGLSSPLRLL, the hit_pair_ratio is on record as 1.49.

Substance YMERVLGGLSSPLRLL came in with a hit_pair_ratio of 10.06.

The same assay, now with this note: bait USP8_Rhodanese__P40818_174_317; wild-type/mutant pair ratio of averaged fractions; negative values where mutant fraction is higher.
With HMERVLGGLSSPLRLL, the hit_pair_ratio is -2.43.

In the case of PMERVLGGLSSPLRLL, the hit_pair_ratio came to 1.96.

For the substance QMERVLGGLSSPLRLL, the hit_pair_ratio is recorded as -4.33.

Regarding SMERVLGGLSSPLRLL, the hit_pair_ratio is given as -2.25.

For the substance TMERVLGGLSSPLRLL, the hit_pair_ratio was -2.57.

Staying with this assay, now noted: wild type/mutant pair; bait USP8_Rhodanese__P40818_174_317; vs hit_library_peptide_wt GLALWEAKMKQLAERA; negative where mutant fraction exceeds wild type; ProP-PD pairs (sheet S7.B).
Turning to KLALWEAKMKQLAERA, the hit_pair_ratio is on record as 238.03.

In turn, NLALWEAKMKQLAERA returned a hit_pair_ratio of 107.46.

Substance QLALWEAKMKQLAERA yielded a hit_pair_ratio of 553.50.

As for RLALWEAKMKQLAERA, the hit_pair_ratio is 1107.01.

The values are drawn from publication PMC12057046, “Elucidation of short linear motif-based interactions of the MIT and rhodanese domains of the ubiquitin-specific protease 8” (Biology Direct, 2025).
